In paper PMC3137072:
Blank lines part the entries; values can stand above or below the substance they belong to.

Assays:
[1] = target: microtubules (polymerized tubulin) (UniProt Q6B856)
[2] = target: filamentous actin (F-actin), non-muscle actin (UniProt P60709)

microtubules (polymerized tubulin), sequence (Q6B856 whole entry, looked up): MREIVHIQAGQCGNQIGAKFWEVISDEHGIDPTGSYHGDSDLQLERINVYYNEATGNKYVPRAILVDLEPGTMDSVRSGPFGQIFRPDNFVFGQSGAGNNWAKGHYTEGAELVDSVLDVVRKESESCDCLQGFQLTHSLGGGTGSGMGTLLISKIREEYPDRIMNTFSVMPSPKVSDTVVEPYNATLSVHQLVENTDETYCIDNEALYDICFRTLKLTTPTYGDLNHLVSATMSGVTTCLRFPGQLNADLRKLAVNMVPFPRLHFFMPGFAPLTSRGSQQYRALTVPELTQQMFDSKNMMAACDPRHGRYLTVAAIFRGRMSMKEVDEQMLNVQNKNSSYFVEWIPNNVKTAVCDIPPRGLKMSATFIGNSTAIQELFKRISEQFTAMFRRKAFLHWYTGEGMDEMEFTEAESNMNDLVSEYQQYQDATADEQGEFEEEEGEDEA
G2L3-ΔGAR (GAS2-like 3 lacking the GAR domain), GFP-tagged, sequence (Q86XJ1 whole entry, stated change not applied, the tested form may be a part): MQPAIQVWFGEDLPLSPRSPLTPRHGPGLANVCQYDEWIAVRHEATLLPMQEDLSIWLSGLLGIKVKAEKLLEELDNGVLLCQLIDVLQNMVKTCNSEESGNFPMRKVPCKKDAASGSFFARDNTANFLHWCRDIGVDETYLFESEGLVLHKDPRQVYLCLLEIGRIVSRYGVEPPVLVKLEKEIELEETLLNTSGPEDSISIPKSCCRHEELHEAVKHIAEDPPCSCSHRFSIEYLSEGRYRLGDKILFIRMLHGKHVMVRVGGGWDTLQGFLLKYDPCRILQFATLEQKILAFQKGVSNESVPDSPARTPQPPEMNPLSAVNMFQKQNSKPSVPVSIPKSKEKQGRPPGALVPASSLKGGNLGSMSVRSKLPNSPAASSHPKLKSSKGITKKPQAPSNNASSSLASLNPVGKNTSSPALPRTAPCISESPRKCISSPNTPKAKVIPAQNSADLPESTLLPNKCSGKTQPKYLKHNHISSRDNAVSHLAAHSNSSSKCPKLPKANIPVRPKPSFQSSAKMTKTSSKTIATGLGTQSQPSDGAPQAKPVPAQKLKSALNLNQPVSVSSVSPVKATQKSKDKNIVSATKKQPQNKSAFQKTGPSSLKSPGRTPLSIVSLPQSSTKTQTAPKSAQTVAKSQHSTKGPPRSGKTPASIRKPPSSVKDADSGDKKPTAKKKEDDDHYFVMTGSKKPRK
G2L3-CH (calponin homology domain of GAS2-like 3), sequence (Q86XJ1 48-168): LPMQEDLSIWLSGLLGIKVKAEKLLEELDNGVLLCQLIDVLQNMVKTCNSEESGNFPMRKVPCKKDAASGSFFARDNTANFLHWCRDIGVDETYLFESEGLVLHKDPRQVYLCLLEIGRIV

- FRAP, t½ of recovery of GFP-tagged G2L3-C-term on MTs in NIH3T3 cells [1]: 3.9 s
Substance: G2L3-C-term (C terminus of GAS2-like 3) (domain or fragment)

- FRAP, t½ of recovery of GFP-tagged G2L3-CH on actin filaments in NIH3T3 cells [2]: 28.5 s
Substance: G2L3-CH (calponin homology domain of GAS2-like 3) (from UniProt Q86XJ1 48-168) (domain or fragment)

- FRAP, t½ of recovery of GFP-tagged G2L3-ΔCH on MTs in NIH3T3 cells [1]: 15.3 s
Substance: G2L3-ΔCH (GAS2-like 3 lacking the CH domain), GFP-tagged (domain or fragment)

- FRAP, t½ of recovery of GFP-tagged G2L3-ΔGAR on MTs in NIH3T3 cells [1]: 6 s
Substance: G2L3-ΔGAR (GAS2-like 3 lacking the GAR domain), GFP-tagged (from UniProt Q86XJ1 1-694) (natural protein)
